{
  "source": "patent US20220323561A1",
  "about": "(ENTEROME S A, published 2022)",
  "key": {"[1]": {"molecular_target": "T1, HLA-A*0201 molecule expressed on human T2 cells (human)", "T1 construct": "also called HLA-A2", "assay": "T2 cells (HLA-A*0201), anti-HLA-A2 flow cytometry"}, "[2]": {"molecular_target": "T1, HLA-A*0201 molecule expressed on human …", "assay": "T2 cells (HLA-A*0201), peptide at 100 µM, anti-HLA-A2 flow cytometry", "method": "(§1) T2 cells (5.104 cells per well) are incubated with decreasing concentrations of peptides from 100 μM to 0.1 μM (4 points: 100 μM, 10 μM, 1 μM, 0.1 μM) in serum-free medium (TexMacs) supplemented with […] of β2 Microglobulin at 37° C. for 16 hours. Cells are then washed two times and marked with the anti-HLA-A2 antibody coupled to PE (clone BB7.2, BD Pharmagen).\n(§2) The relative affinity is then determined as follows: […]"}, "[3]": {"molecular_target": "T1, HLA-A*0201 molecule expressed on human …", "assay": "T2 cells (HLA-A*0201), peptide titration, anti-HLA-A2 flow cytometry", "method": "as §1, §2"}, "[4]": {"molecular_target": "T1, HLA-A*0201 molecule expressed on human …", "assay": "T2 cells (HLA-A*0201), peptide at 0.1 µM, anti-HLA-A2 flow cytometry", "method": "as §1, §2"}, "[5]": {"molecular_target": "T1, HLA-A*0201 molecule expressed on human …", "assay": "T2 cells (HLA-A*0201), peptide at 1 µM, anti-HLA-A2 flow cytometry", "method": "as §1, §2"}, "[6]": {"molecular_target": "T1, HLA-A*0201 molecule expressed on human …", "assay": "T2 cells (HLA-A*0201), peptide at 10 µM, anti-HLA-A2 flow cytometry", "method": "as §1, §2"}},
  "data": [
    {"binder": "VLFGAPAYL", "note": "[TNFRSF13C-B13]", "values": [
      {"measurement": "binding result", "setting": "[1]", "value": "binds"}
    ]},
    {"binder": "AMNSLSLYI", "note": "[MS4A1-B4]", "values": [
      {"measurement": "mean relative fluorescence intensity (HIV peptide = 100)", "setting": "[2]", "value": "115 % of HIV pol 589-597 at 100 µM"},
      {"measurement": "concentration of peptide that induces 20% of HLA-A2 expression", "setting": "[3]", "value": 12.3, "unit": "µM"},
      {"measurement": "in vitro binding affinity (relative to HIV pol reference peptide)", "setting": "[3]", "value": "2.1 ratio to HIV pol 589-597"},
      {"measurement": "mean relative fluorescence intensity (HIV peptide = 100)", "setting": "[4]", "value": "0.5 % of HIV pol 589-597 at 100 µM"},
      {"measurement": "mean relative fluorescence intensity (HIV peptide = 100)", "setting": "[5]", "value": "1.9 % of HIV pol 589-597 at 100 µM"},
      {"measurement": "mean relative fluorescence intensity (HIV peptide = 100)", "setting": "[6]", "value": "13.1 % of HIV pol 589-597 at 100 µM"}
    ]},
    {"binder": "ILIPAGIYL", "note": "[MS4A1-B3]", "values": [
      {"measurement": "mean relative fluorescence intensity (HIV peptide = 100)", "setting": "[2]", "value": "88.8 % of HIV pol 589-597 at 100 µM"},
      {"measurement": "concentration of peptide that induces 20% of HLA-A2 expression", "setting": "[3]", "value": 0.7, "unit": "µM"},
      {"measurement": "in vitro binding affinity (relative to HIV pol reference peptide)", "setting": "[3]", "value": "0.1 ratio to HIV pol 589-597"},
      {"measurement": "mean relative fluorescence intensity (HIV peptide = 100)", "setting": "[4]", "value": "1.9 % of HIV pol 589-597 at 100 µM"},
      {"measurement": "mean relative fluorescence intensity (HIV peptide = 100)", "setting": "[5]", "value": "17.8 % of HIV pol 589-597 at 100 µM"},
      {"measurement": "mean relative fluorescence intensity (HIV peptide = 100)", "setting": "[6]", "value": "87.8 % of HIV pol 589-597 at 100 µM"}
    ]},
    {"binder": "YMNSLSLAL (Printed as YMNSLSLAL)", "note": "[MS4A1-B42]", "values": [
      {"measurement": "binding result", "setting": "[1]", "value": "binds"}
    ]},
    {"binder": "LLFGAPAGV", "note": "[TNFRSF13C-B12]", "values": [
      {"measurement": "binding result", "setting": "[1]", "value": "binds"}
    ]},
    {"binder": "FLAFVPLDV", "note": "[CD37-B14]", "values": [
      {"measurement": "binding result", "setting": "[1]", "value": "binds"}
    ]},
    {"binder": "VLAFVPLGV", "note": "[CD37-B15]", "values": [
      {"measurement": "binding result", "setting": "[1]", "value": "binds"}
    ]},
    {"binder": "FLFGAPASA", "note": "[TNFRSF13C-B11]", "values": [
      {"measurement": "binding result", "setting": "[1]", "value": "binds"}
    ]},
    {"binder": "ILAFVPLYL", "note": "[CD37-B12]", "values": [
      {"measurement": "binding result", "setting": "[1]", "value": "binds"}
    ]},
    {"binder": "AMNSLSLTV", "note": "[MS4A1-B43]", "values": [
      {"measurement": "binding result", "setting": "[1]", "value": "binds"}
    ]},
    {"binder": "LIFEHPERV", "note": "[CD22-B12]", "values": [
      {"measurement": "binding result", "setting": "[1]", "value": "binds"}
    ]},
    {"binder": "YILGGLLMV", "note": "[MS4A1-B12]", "values": [
      {"measurement": "mean relative fluorescence intensity (HIV peptide = 100)", "setting": "[2]", "value": "42 % of HIV pol 589-597 at 100 µM"},
      {"measurement": "concentration of peptide that induces 20% of HLA-A2 expression", "setting": "[3]", "value": 31.2, "unit": "µM"},
      {"measurement": "in vitro binding affinity (relative to HIV pol reference peptide)", "setting": "[3]", "value": "3.5 ratio to HIV pol 589-597"},
      {"measurement": "mean relative fluorescence intensity (HIV peptide = 100)", "setting": "[4]", "value": "1.2 % of HIV pol 589-597 at 100 µM"},
      {"measurement": "mean relative fluorescence intensity (HIV peptide = 100)", "setting": "[5]", "value": "1.1 % of HIV pol 589-597 at 100 µM"},
      {"measurement": "mean relative fluorescence intensity (HIV peptide = 100)", "setting": "[6]", "value": "7.6 % of HIV pol 589-597 at 100 µM"}
    ]},
    {"binder": "RVFEHPELV", "note": "[CD22-B13]", "values": [
      {"measurement": "binding result", "setting": "[1]", "value": "binds"}
    ]},
    {"binder": "LMIPAGIYA", "note": "[MS4A1-H3]", "values": [
      {"measurement": "mean relative fluorescence intensity (HIV peptide = 100)", "setting": "[2]", "value": "92.6 % of HIV pol 589-597 at 100 µM"},
      {"measurement": "concentration of peptide that induces 20% of HLA-A2 expression", "setting": "[3]", "value": 4.83, "unit": "µM"},
      {"measurement": "in vitro binding affinity (relative to HIV pol reference peptide)", "setting": "[3]", "value": "0.5 ratio to HIV pol 589-597"},
      {"measurement": "mean relative fluorescence intensity (HIV peptide = 100)", "setting": "[4]", "value": "0 % of HIV pol 589-597 at 100 µM"},
      {"measurement": "mean relative fluorescence intensity (HIV peptide = 100)", "setting": "[5]", "value": "0.9 % of HIV pol 589-597 at 100 µM"},
      {"measurement": "mean relative fluorescence intensity (HIV peptide = 100)", "setting": "[6]", "value": "35.7 % of HIV pol 589-597 at 100 µM"}
    ]}
  ]
}
